Data taken from patent US20250368744A1 (CONCEPT TO MEDICINE BIOTECH, published 2025).
Substitutions are numbered along the chain they refer to.

T1: human CCR4 (human, UniProt P51679 1-360)
T1 construct: whole, on cells; also called hCCR4
T1 sequence (looked up): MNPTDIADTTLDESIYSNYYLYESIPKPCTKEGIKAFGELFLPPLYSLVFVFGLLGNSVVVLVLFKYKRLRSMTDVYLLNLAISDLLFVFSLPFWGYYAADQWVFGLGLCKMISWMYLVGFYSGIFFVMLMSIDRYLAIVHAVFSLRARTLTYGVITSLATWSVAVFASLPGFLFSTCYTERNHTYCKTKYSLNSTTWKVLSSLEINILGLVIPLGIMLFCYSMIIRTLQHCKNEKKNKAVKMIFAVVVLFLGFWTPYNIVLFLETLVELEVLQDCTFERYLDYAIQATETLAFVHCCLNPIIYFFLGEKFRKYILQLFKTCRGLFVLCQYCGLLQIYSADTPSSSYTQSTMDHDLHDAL

B1: 163H9D5 (antibody, V domains shown)
VH: EVQLVESGGGLVQPKGSLKLSCAASGFSFNTYAMNWVRQAPGKGLKWVARIRTKSNNYATHYADSVKDRFTLSRDDSESMLYLQMNNLKTEDTAMYYCVGGGYGSSASNAMAYWGQGTSVTVSS
VL: DIVMTQAAPSVPVTPGESVSISCRSSKSLLHSNGNTYLYWFLQRPGQSPQLLIFRMSNLASGVPDRFSGSGSGTAFTLRISRVEAEDVGVYYCMQHLEYPFTFGSGTKLEIK
notes: tested as chimeric mAb
B2: 195H8D10 (antibody, V domains shown)
VH: EVQLVGSGGGLVQPKGSLKLSCAASGFNFNTYVMNWVRQAPGKGLEWVARIRTKSNNYATYYADSVKDRFTISRDDSESKLYLQMNNLKTEDTAMYYCVSGTITRLGGGLDYWGQGTSVTVSS
VL: B1 VL with S28R, F54Y, S105G
notes: tested as chimeric mAb; also called 195H8D10-C
B3: 200C9B9 (antibody, V domains shown)
VH: B2 VH with G6E, N28S, E46N, Y61F, A63V, S79N, K80M, T90I, M95I, G108A
VL: B1 VL with F54Y, S105G
notes: tested as chimeric mAb; also called 200C9B9-C
B4: 96G3-1F10 (antibody, V domains shown)
VH: DLQLKESGPGLVKPSQSLSLTCSVTGYSITSGYYWNWIRQFPGNKLEWMGFISYDGNNNYNPSLKNRISITRDTSKNQFFLNVKSVTTEDTATYYCSRATGLRKAWFAYWGQGTLVTVSA
VL: DIQMTQSSSYLSVSLGGRVTITCKASDHINNWLAWYQQKPGNAPRLLISDTTSLGTGVPSRFRGSGSGKDYTLSITSLQTEDVATYFCQQYWSYPYTFGGGTKLEIR
notes: tested as chimeric mAb
B5: 200C9B9-C1 (antibody, V domains shown)
VH: B2 VH with G6E, N28S, E46N, Y61F, A63V, S79N, K80M, T90I, M95I, G108A
VL: B1 VL with N33Q, F54Y, S105G
notes: also called 200C9B9 VH with 200C9B9 VL NG-QG
B6: 195H8D10-C2 (antibody, V domains shown)
VH: B2 VH
VL: B1 VL with S28R, G34A, F54Y, S105G
notes: also called 195H8D10 VH with 195H8D10 VL NG-NA
B7: Hu195H8D10-1 NG-NA (antibody, V domains shown)
VH: EVQLVESGGGLVQPGGSLRLSCAASGFNFNTYVMNWVRQAPGKGLEWVGRIRTKSNNYATYYADSVKDRFTISRDDSKNSLYLQMNSLKTEDTAVYYCARGTITRLGGGLDYWGQGTLVTVSS
VL: DIVMTQSPLSLPVTPGEPASISCRSSKRLLHSNANTYLYWYLQKPGQSPQLLIYRMSNLASGVPDRFSGSGSGTDFTLKISRVEAEDVGVYYCMQHLEYPFTFGGGTKLEIK
notes: humanized, PTM site removed
B8: Hu200C9B9-7 NG-NA (antibody, V domains shown)
VH: B7 VH with N28S, G49A, Y61F, A63V, A99V, R100S, G108A
VL: B7 VL with R28S, D75A
notes: humanized, PTM site removed
B9: Hu200C9B9-3 NG-NA (antibody, V domains shown)
VH: B7 VH with N28S, Y61F, A63V, G108A
VL: B7 VL with R28S, D75A
notes: humanized, PTM site removed
B10: Hu195H8D10-7 NG-NA (antibody, V domains shown)
VH: B7 VH with G49A, A99V, R100S
VL: B7 VL with D75A
notes: humanized, PTM site removed
B11: 4A19 (antibody, V domains shown)
VH: QVQLVQSGAEVKKPGASVKVSCKASGYTFTDSEMHWVRQATGQGLEWMGAIQPETGGTAYNQKFKARVTMTRDTSISTAYMELSSLRSEDTAVYYCARRRRNFDYWGQGTLVTVSS
VL: DIVMTQTPLSLSVTPGQPASISCRSSQSLFHSSGNTYLHWYLQKPGQPPQLLIYKVSNRFSGVPDRFSGSGSGTDFTLKISRVEAEDVGVYYCSQSTHVPFTFGQGTKLEIKR
B12: 200C9B9-C2 (antibody, V domains shown)
VH: B2 VH with G6E, N28S, E46N, Y61F, A63V, S79N, K80M, T90I, M95I, G108A
VL: B1 VL with G34A, F54Y, S105G
notes: also called 200C9B9 VH with 200C9B9 VL NG-NA
B13: 195H8D10-C1 (antibody, V domains shown)
VH: B2 VH
VL: B1 VL with S28R, N33Q, F54Y, S105G
notes: also called 195H8D10 VH with 195H8D10 VL NG-QG

target: T1, human CCR4; assay: FACS, CHO-K1 hCCR4 cells
Description: (§1) Briefly, HEK293 hCCR8 cell line, CHO-K1 cyno CCR8 cell line or CHO-K1 hCCR4 cell line was first incubated with 5-fold serially diluted and 8 doses with the above 10 chimeric Abs and hlgG1 control starting from 100 nM at 4° C. for 30 mins. After washing by FACS buffer, PE Goat anti-Human IgG Fc Secondary Antibody (eBioscience™, Invitrogen) was added to each well and incubated at 4° C. for 30 mins. Samples were washed twice with FACS buffer. The mean florescence intensity (MFI) of PE was evaluated by MACSQuant Analyzer 16.

Binder	binding result
B1	no binding (tested: 100 nM (highest concentration tested))
B2	no binding (tested: 100 nM (highest concentration tested))
B3	no binding (tested: 100 nM (highest concentration tested))
B4	no binding (tested: 100 nM (highest concentration tested))

target: T2, human C-C motif chemokine receptor 8 (CCR8) (human, UniProt P51685 1-355); assay: cell-based or functional assay
T2 sequence (P51685 whole entry): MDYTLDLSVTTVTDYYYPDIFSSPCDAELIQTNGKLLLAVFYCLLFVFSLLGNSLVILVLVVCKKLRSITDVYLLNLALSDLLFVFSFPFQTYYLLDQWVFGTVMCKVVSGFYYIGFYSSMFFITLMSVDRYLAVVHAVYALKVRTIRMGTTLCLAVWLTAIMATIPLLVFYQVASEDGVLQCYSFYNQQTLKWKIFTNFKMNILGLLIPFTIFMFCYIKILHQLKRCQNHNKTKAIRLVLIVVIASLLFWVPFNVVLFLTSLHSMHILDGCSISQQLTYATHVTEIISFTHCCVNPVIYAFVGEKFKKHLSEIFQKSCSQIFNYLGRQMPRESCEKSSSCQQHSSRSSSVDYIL

IC50, hCCL1-induced migration of BaF3 hCCR8 cells (RLU) [cont'd) C] [nM]	Binder
0.478	B2
0.798	B3
5.28	B4

target: T2, human C-C motif chemokine receptor 8 …; assay: cell-based or functional assay; remark: another data set of the same source

IC50, hCCL1-induced beta-arrestin recruitment (RLU), CHO-K1 hCCR8 cells [nM]	Binder
13.8	B1
3.48	B2
0.771	B3
9.01	B4

target: T2, human C-C motif chemokine receptor 8 …; assay: cell-based or functional assay; remark: another data set of the same source

IC50, hCCL1-induced Ca2+ flux (stimulation %), Chem-1 hCCR8 cells [lower graph] [nM]	IC50, hCCL1-induced Ca2+ flux (stimulation %), Chem-1 hCCR8 cells [upper graph] [nM]	Binder
5.77	7.6	B1
1.62		B2
1.89		B3
	15.2	B4

target: T2, human C-C motif chemokine receptor 8 …; assay: cell-based or functional assay; remark: another data set of the same source

IC50, hCCL1-induced beta-arrestin recruitment (RLU), CHO-K1 hCCR8 cells [nM]	Binder
0.55	B2
0.154	B5
0.143	B3
0.288	B6

target: T2, human C-C motif chemokine receptor 8 …; assay: cell-based or functional assay; remark: another data set of the same source

IC50, hCCL1-induced beta-arrestin recruitment (RLU), CHO-K1 hCCR8 cells [nM]	IC50 (read off the curve), hCCL1-induced beta-arrestin recruitment (RLU), CHO-K1 hCCR8 cells [nM]	Binder
1.52		B7
	~2	B8
1.74		B9
5.25		B10
3.02		B3

target: T2, human C-C motif chemokine receptor 8 …; assay: cell-based or functional assay; remark: another data set of the same source

IC50, hCCL1-induced Ca2+ flux (stimulation %), Chem-1 hCCR8 cells [nM]	Binder
0.36	B8
0.21	B9
0.49	B10
0.33	B2
0.55	B3

target: T2, human C-C motif chemokine receptor 8 …; assay: cell-based or functional assay; remark: another data set of the same source

IC50, hCCL1-induced beta-arrestin recruitment (% stimulation), CHO-K1 hCCR8 cells [nM]	Binder
1.58	B8
1.68	B11

target: T2, human C-C motif chemokine receptor 8 …; assay: cell-based or functional assay; remark: another data set of the same source

IC50, hCCL1-induced Ca2+ flux (% stimulation), Chem-1 hCCR8 cells [nM]	Binder
4.33	B8
12.9	B11

target: T2, human C-C motif chemokine receptor 8 …; assay: FACS (MFI-PE) on HEK293 hCCR8 cells
Description: as §1

EC50 [nM]	Binder
0.107	B1
0.0746	B2
0.0741	B3
0.109	B4

target: T2, human C-C motif chemokine receptor 8 …; assay: FACS (MFI-PE) on CHO-K1 hCCR8 cells

EC50 [nM]	Binder
0.211	B2
0.207	B12
0.399	B5
0.132	B3
0.29	B13

target: T2, human C-C motif chemokine receptor 8 …; assay: FACS (MFI-PE) on HEK293 hCCR8 cells; remark: another data set of the same source

EC50 [nM]	Binder
0.033	B7
0.069	B8
0.052	B9
0.092	B10
0.041	B2
0.05	B3

target: T2, human C-C motif chemokine receptor 8 …; assay: FACS (MFI PE) on HEK293 hCCR8 cells

EC50 [nM]	Binder
0.15	B8
0.21	B11

target: T3, cyno CCR8 (cynomolgus, UniProt G7NYJ2 1-355); assay: FACS (MFI-PE) on CHO-K1 cyno CCR8 cells
T3 construct: whole, on cells; also called cynomolgus CCR8 protein
Description: as §1

T3 sequence (G7NYJ2 entry or part of it): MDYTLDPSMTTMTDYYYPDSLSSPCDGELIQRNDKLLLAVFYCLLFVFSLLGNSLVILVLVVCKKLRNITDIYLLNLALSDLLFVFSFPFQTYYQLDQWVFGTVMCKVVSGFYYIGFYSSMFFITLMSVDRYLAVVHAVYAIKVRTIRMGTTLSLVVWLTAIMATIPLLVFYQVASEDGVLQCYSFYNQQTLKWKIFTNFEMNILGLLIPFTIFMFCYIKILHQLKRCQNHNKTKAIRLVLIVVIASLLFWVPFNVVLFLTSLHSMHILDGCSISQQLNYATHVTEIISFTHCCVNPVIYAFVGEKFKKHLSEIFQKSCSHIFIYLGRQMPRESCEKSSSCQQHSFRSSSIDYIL

EC50 [nM]	Binder
0.37	B2
3.16	B3
0.0853	B4

target: T3, cyno CCR8; assay: FACS (MFI-PE) on CHO-K1 cyno CCR8 cells; remark: another data set of the same source

EC50 [nM]	Binder
0.378	B2
14.6	B12
1.53	B3
0.517	B6

target: T3, cyno CCR8; assay: FACS (MFI-PE) on CHO-K1 cyno CCR8 cells; fitted value, the curve stays at the baseline
Description: as §1

EC50 [nM]	Binder
29.9	B1

target: T3, cyno CCR8; assay: FACS (MFI-PE) on CHO-K1 cyno CCR8 cells; fitted value, the curve hardly leaves the baseline

EC50 [nM]	Binder
68.1	B13

target: T3, cyno CCR8; assay: FACS (MFI-PE) on CHO-K1 cyno CCR8 cells; fitted value far outside the range tested (up to 100 nM)

EC50 [nM]	Binder
> 100	B5
